The source of these data is US20090214427.

Data set [1] deals with synthetic peptide HK2p01 (SRFKVWWAAG).
Data set [2] relates to synthetic peptide HK2p03 (PARRPFPVTA).
Data set [3] has as its system synthetic peptide HK2p02 (AARRPFPAPS).
The test system of data set [4] is synthetic peptide HK2p04 (CFRQGCWVIT).
For data set [5], the system named is synthetic peptide HK2p06 (CYRMPTCMQRD).

Chain of plasma kallikrein (chain, as listed by the source): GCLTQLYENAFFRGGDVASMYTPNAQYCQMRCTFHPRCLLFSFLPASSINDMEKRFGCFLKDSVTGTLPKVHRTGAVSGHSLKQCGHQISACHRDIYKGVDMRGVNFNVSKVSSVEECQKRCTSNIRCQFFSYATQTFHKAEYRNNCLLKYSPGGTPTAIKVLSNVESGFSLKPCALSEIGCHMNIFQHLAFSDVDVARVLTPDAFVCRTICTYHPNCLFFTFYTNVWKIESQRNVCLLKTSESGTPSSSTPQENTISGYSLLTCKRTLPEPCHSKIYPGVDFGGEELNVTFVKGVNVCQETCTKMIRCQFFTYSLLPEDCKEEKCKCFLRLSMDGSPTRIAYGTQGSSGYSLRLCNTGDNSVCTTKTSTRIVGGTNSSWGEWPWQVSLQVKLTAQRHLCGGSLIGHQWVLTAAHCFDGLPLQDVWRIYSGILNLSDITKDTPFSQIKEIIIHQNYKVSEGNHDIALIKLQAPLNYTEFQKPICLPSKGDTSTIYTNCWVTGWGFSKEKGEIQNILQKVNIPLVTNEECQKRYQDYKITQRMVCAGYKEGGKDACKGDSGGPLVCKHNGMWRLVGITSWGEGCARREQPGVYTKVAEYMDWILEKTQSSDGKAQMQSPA

With urokinase, the “enzyme activity (chromogenic substrate)” value in data set [1], in data set [2] and in data set [3] was “showed no inhibition” throughout.

“recombinant wild-type (wt) human kallikrein 2”: the “enzyme activity of hK2 (chromogenic substrate S-2302)” value in data set [1] was “caused a significant reduction of the enzyme activity”; in data set [4], “did not show any effect on the enzyme activity of hK2”; in data set [2], “caused a significant reduction of the enzyme activity”; in data set [5], “did not show any effect on the enzyme activity of hK2”; in data set [3] it was “caused a significant reduction of the enzyme activity”.

With α-chymotrypsin, the “enzyme activity (chromogenic substrate)” value in data set [1], in data set [2] and in data set [3] was “showed no inhibition” in each case.

thrombin: the “enzyme activity (chromogenic substrate)” value in data set [1], in data set [2] and in data set [3] was “showed no inhibition” each time.

Consider prostate specific antigen, for which the “enzyme activity (chromogenic substrate)” value in data set [1], in data set [2] and in data set [3] was “showed no inhibition” throughout.

Regarding plasma kallikrein, the “enzyme activity (chromogenic substrate)” value in data set [1], in data set [2] and in data set [3] was “showed no inhibition” throughout.
